What all share (assay type): cell-based
Assay [1] deals with HeLa cells. The assay is described as follows: Parkin in mitochondria-rich membrane fraction, immunoblot. The conditions noted are these: for translocation of YFP-Parkin variant to mitochondria-rich membrane fraction: HeLa, CCCP 1 hr, Western blotting.
Text: (§1) For PINK1 experiments, cells were fractionated using the Mitochondria Isolation Kit (Pierce), according to manufacturer's specifications with slight modifications. To isolate integral membrane proteins, membrane fractions obtained as above were carbonate extracted with 0.1M Na2CO3 fresh cold buffer and membranes were pelleted, as described in the supplemental methods. For Parkin experiments, cells were fractionated as described previously, with minor modifications described in the supplemental methods (Narendra (2008) J Cell Biol 183: 795-803). The following primary antibodies were used: anti-Parkin (PRK8) monoclonal (Santa Cruz), anti-Tom20 polyclonal (Santa Cruz), anti-cytochrome c monoclonal (BD Biosciences), anti-PINK1 polyclonal (Novus Biologicals), anti-VDAC monoclonal (Calbiochem), anti-GAPDH polyclonal (Sigma-Aldrich), anti-Tubulin monoclonal (Sigma-Aldrich), anti-V5 monoclonal (Invitrogen), anti-GFP polyclonal (Invitrogen).
as §1, with “with slight modifications described in the supplemental methods. To isolate” for “with slight modifications. To isolate”, “minor modifications detailed in the” for “minor modifications described in the”, “supplemental methods (Narendra (2008) J Cell Biol 183: 795-803). The protease protection assay was performed as described previously (Chen (2005) J Biol Chem 280: 26185-26192). Cells were fixed and immunostained as described previously (Narendra (2008)” for “supplemental methods (Narendra (2008)”, “anti-GFP polyclonal (Invitrogen), anti-TIM23 monoclonal (BD Biosciences), and anti-Hsp60 monoclonal (Stressgen).” for “anti-GFP polyclonal (Invitrogen).”

The test system of the next assay is PINK1. The assay is described as follows: PINK1 accumulation by fractionation and immunoblotting.
Text: as §1
as §1, with “with slight modifications described in the supplemental methods. To isolate” for “with slight modifications. To isolate”, “minor modifications detailed in the” for “minor modifications described in the”, “supplemental methods (Narendra (2008) J Cell Biol 183: 795-803). The protease protection assay was performed as described previously (Chen (2005) J Biol Chem 280: 26185-26192). Cells were fixed and immunostained as described previously (Narendra (2008)” for “supplemental methods (Narendra (2008)”, “anti-GFP polyclonal (Invitrogen), anti-TIM23 monoclonal (BD Biosciences), and anti-Hsp60 monoclonal (Stressgen).” for “anti-GFP polyclonal (Invitrogen).”
(In general: Immunoblotting shows a protein as a band on a membrane.)

Assay [2] concerns HeLa cells. Briefly: Parkin colocalization with mitochondria scored by confocal microscopy. The conditions noted are these: for YFP-Parkin (wild type or indicated mutant) colocalization with mitochondria, % of cells: HeLa cells, 1 hour. Here is the method:
(§2) Cultured cells seeded in borosilicate chamber slides (Thermo Fisher Scientific) were transfected or cotransfected with YFP-Parkin, ECFP-Parkin, mCherry-Parkin, DsRed-Mito (Clontech Laboratories, Inc.), pcDNA3.1 (Invitrogen), vMIA, and/or Drp1K38A constructs using Fugene 6 (Roche). Parkin-myc was a gift from M. Cookson (National Institutes of Health, Bethesda, Md.). Cells were fixed 12-24 hours after transfection with 4% paraformaldehyde in PBS. Cells were stained with following primary antibodies: mouse monoclonal cytochrome c (BD), rabbit polyclonal Tom20 (Santa Cruz Biotechnology, Inc.), mouse monoclonal Parkin PRK8 (Santa Cruz Biotechnology, Inc.), rabbit polyclonal PMP70 (Invitrogen), and/or mouse monoclonal TRAP1 (Abcam); and with the following secondary antibodies: mouse and/or rabbit Alexa 488, 594, and 633 (Invitrogen). For assessment of mitochondrial membrane potential, cells were pulsed with 50 nM Mito-Tracker red (Invitrogen) for 15 min, washed, and incubated for an additional 10 minutes before fixation or imaging. For assessment of cell metabolic potential, cell nuclei were stained with Hoechst 33342 (Invitrogen).
Fixed cells and live cells in the FLIP assay were imaged using an inverted microscope (LSM510 Meta; Carl Zeiss, Inc.) with a 63×/1.4 oil DIC Plan Apo objective at 25° C. and 37° C., respectively. For the FLIP assay, a bleach region of interest (ROI) occupying approximately one eighth of the cell was positioned over a relatively mitochondria-free portion of the cytosol. Cells were alternately bleached (488 nm using a 30-mW argon laser at 75% power and 100% transmission for 150 iterations) and imaged (488 nm at 75% power and 2% transmission) for 10 minutes (—60 cycles over the length of the experiment). Two channel prebleach and postbleach images were obtained with 488 and 594 lasers to assess the position of mitochondria before and after bleaching. Circular ROIs with diameters of ˜1 and 5 μm, respectively, were placed over the mitochondria and cytosol of the target cell, and an ROI of 10 μm was placed over the control cell. Imaging of YFP-Parkin translocation in live HeLa cells was performed on a live cell imager system (UltraView LCI; PerkinElmer) at 35° C. with a 100×/1.45 α-Plan-Fluor objective.
Image contrast and brightness were adjusted in Photoshop (Adobe). Colocalization was assessed with line scans using MetaMorph (MDS Analytical Technologies). For analysis of mitochondrial membrane potential in cells, mitochondrial voxels in each image (the cytochrome c channel threshold was ≧400 au) were segregated into Parkin-positive (the YFP-Parkin channel threshold was ≧1,100 au) or Parkin-negative subsets, and MitoTracker intensity for each voxel was measured using Volocity software (Improvision). For each cell, the mean MitoTracker intensity per voxel was calculated for the Parkin-positive and Parkin-negative subsets. The difference in mean Mito-Tracker intensity between the Parkin-positive and Parkin-negative subsets was calculated using a paired t test. Western blotting HeLa cells stably expressing YFP-Parkin, HEK293 cells, and rat cortical neurons 2 days in vitro were harvested and fractionated as described previously (Karbowski et al., J. Cell Biol. 178: 71-84, 2007). Samples were run on SDS-PAGE and immunoblotted with the following antibodies: polyclonal rabbit anti-GFP (Invitrogen), mouse monoclonal anti-Parkin (PRK8), and mouse monoclonal anti-Porin 31HL (EMD).
(§3) Confocal microscopy of fixed samples, scoring of Parkin recruitment and Parkininduced mitophagy, and live cell imaging were performed as described previously (Narendra (2008) J Cell Biol 183: 795-803). Experiments in Mfn1/2 null cells were performed as described previously with minor modifications.
Confocal microscopy of fixed samples, scoring of Parkin recruitment and Parkin-induced mitophagy, and live cell imageing were performed as described previously (Narendra (2008) J Cell Biol 183: 795-803). […]

Assay [3] deals with HeLa cells. Briefly: Mitochondrial translocation of Parkin by imaging (Examples 4 and 5). Conditions: HeLa stably expressing YFP-Parkin, MG132 for 8 hrs. As for the experimental part:
Cells were cultured in borosilicated chamber slides for imaging, 6-well plates for whole cell lysates, and 100 or 150 mm culture dish for subcellular fractionation. One day after seeding, cells were transfected with indicated constructs using Fugene HD (Roche) or Lipofectamine 2000 (Invitrogen) according to the manufacturer's guidelines.
For immunocytochemistry, cultured cells in borosilicated chamber slides were fixed with 4% paraformaldehyde in PBS (USB) and permeabilized with the indicated detergent. After 30 min blocking with 10% BSA in PBS, cells were stained with the following primary antibodies: antiTom20 polyclonal antibody (Santa Cruz Biotechnology, Inc.) and anti-cytochrome C monoclonal antibody (BD), or anti-Tom20 monoclonal antibody (BD) and anti-GFP polyclonal antibody (Invitrogen) and then with the following secondary antibodies: goat anti-mouse/rabbit IgG antibody conjugated with Alexa Fluor 594/647, respectively. In case of live cell imaging, cells were pulsed with 600 nM TMRE for 5 min to evaluate mitochondrial membrane potential or 10 nM Mitotracker Red for 30 min to see the mitochondrial morphology. Cells were imaged using an inverted microscope (LSM510 Meta; Carl Zeiss) with 63×/1.4 oil DIC Plan Apo objective. Image contrast and brightness were adjusted in LSM image browser (Carl Zeiss).

In assay [4] the test system is HeLa cells. The assay is described as follows: Parkin-induced mitophagy, loss of mitochondria by immunocytochemistry. Conditions: HeLa expressing YFP-Parkin variant, CCCP 24 hours. Here is the method: as §2, §3
Confocal microscopy of fixed samples, scoring of Parkin recruitment and Parkin-induced mitophagy, and live cell imageing were performed as described previously (Narendra (2008) J Cell Biol 183: 795-803). Experiments in Mfn1/2 null cells were performed as described previously with minor modifications described in the supplemental methods (Narendra (2008) J Cell Biol 183: 795-803).

Substitutions are numbered along the chain they refer to. In names and notes the source's numbering stands. Where a SMILES comes first, the peptide text is derived from it. The star is where a group is joined. Cbz = O=C(OCc1ccccc1)*

The record followed here is US20120277286A1, “COMPOSITIONS AND METHODS FOR THE TREATMENT OR PREVENTION OF MITOCHONDRIAL DISEASES” (The Government of the USA, as represented by the Secretary, …, priority 2009, published 2012).

Consider `C[C@@H]1C[C@@H]([C@H](O)CC2CC(=O)NC(=O)C2)C(=O)[C@@H](C)C1` [cycloheximide, reference compound], for which the “effect on YFP-Parkin accumulation in mitochondrial enriched heavy membrane fraction” value with HeLa cells [1] (HeLa YFP-Parkin, CCCP plus cycloheximide) is “blocked”. In addition, in the assay on PINK1 (HeLa, after 3 hours CCCP, continuous CCCP), the “effect on abundance of accumulated full length PINK1” value was “little effect”. Also, the “effect on depolarization-induced accumulation of endogenous PINK1” value in the assay with PINK1 (HeLa, cycloheximide 90 minutes, CCCP 60 minutes, whole cell lysates and membrane fraction) is given as “blocked”. Also, the “effect on CCCP-induced Parkin recruitment to mitochondria” value in the assay on HeLa cells [2] (HeLa cells expressing YFP-Parkin, added together with CCCP) is “blocked”. In addition, in the assay on HeLa cells [2] (HeLa, 10 μM CCCP 1 hr+100 μM CHX (30 minutes pretreatment)), the “YFP-Parkin colocalization with mitochondria, % of cells” value is listed as 11.3±4.2%.
As for `CC(C)C[C@@H](C=O)NC(=O)[C@H](CC(C)C)NC(=O)[C@H](CC(C)C)NC(=O)OCc1ccccc1` [MG132, reference compound] (Cbz-Leu-Leu-Leu-aldehyde), the “mitochondrial translocation of Parkin” value in the assay with HeLa cells [3] is “no mitochondrial translocation of Parkin was detected”. In addition, in the assay on PINK1 (HeLa treated with vehicle, 50 μM MG132 for final hour), the “appearance of short form of PINK1” value is on record as “˜52 kDa band appears”.

B1: R275W: YFP-Parkin mutation in RING1 (protein, UniProt O60260 1-465, looked up, variant R275W)
E3 ubiquitin-protein ligase …: MIVFVRFNSSHGFPVEVDSDTSIFQLKEVVAKRQGVPADQLRVIFAGKELRNDWTVQNCDLDQQSIVHIVQRPWRKGQEMNATGGDDPRNAAGGCEREPQSLTRVDLSSSVLPGDSVGLAVILHTDSRKDSPPAGSPAGRSIYNSFYVYCKGPCQRVQPGKLRVQCSTCRQATLTLTQGPSCWDDVLIPNRMSGECQSPHCPGTSAEFFFKCGAHPTSDKETSVALHLIATNSRNITCITCTDVRSPVLVFQCNSRHVICLDCFHLYCVTRLNDWQFVHDPQLGYSLPCVAGCPNSLIKELHHFRILGEEQYNRYQQYGAEECVLQMGGVLCPRPGCGAGLLPEPDQRKVTCEGGNGLGCGFAFCRECKEAYHEGECSAVFEASGTTTQAYRVDERAAEQARWEAASKETIKKTTKPCPRCHVPVEKNGGCMHMKCPQPQCRLEWCWNCGCEWNRVCMGDHWFDV
modifications: YFP fusion
notes: YFP-Parkin mutation in RING1
With B1, in the assay with HeLa cells [1], the “translocation of YFP-Parkin variant to mitochondria-rich membrane fraction” value is “increases localization in the membrane fraction”. Moreover, in the assay on HeLa cells [2] (10 μM CCCP), the “YFP-Parkin (wild type or indicated mutant) colocalization with mitochondria, % of cells” value turned out to be 81.7±2.1%. For the same molecule, the “cells with no mitochondria” value with HeLa cells [4] was 4.0±4%.

B2: C332S: YFP-Parkin engineered mutation in conserved RING cysteine (protein, UniProt O60260 1-465, looked up, variant C332S)
E3 ubiquitin-protein ligase …: B1 E3 ubiquitin-protein ligase … with W275R, C332S
modifications: YFP fusion
notes: YFP-Parkin engineered mutation in conserved RING cysteine
Regarding B2, in the assay with HeLa cells [1], the “translocation of YFP-Parkin variant to mitochondria-rich membrane fraction” value is given as “No membrane translocation was detectable”. For the same molecule, in the assay with HeLa cells [2] (HeLa, 10 μM CCCP, 24 hours), the “recruitment of mutant YFP-Parkin to mitochondria” value is on record as “Mitochondrial recruitment was seen”. Also, the “recruitment of mutant YFP-Parkin to depolarized mitochondria” value in the assay on HeLa cells [2] (HeLa, CCCP 1 hr) is given as “completely disrupt”.

B3: R42P: YFP-Parkin with pathogenic UBL domain mutation (protein, UniProt O60260 1-465, looked up, variant R42P)
E3 ubiquitin-protein ligase …: B1 E3 ubiquitin-protein ligase … with R42P, W275R
modifications: YFP fusion
notes: YFP-Parkin with pathogenic UBL domain mutation
Regarding B3, the “translocation of YFP-Parkin variant to mitochondria-rich membrane fraction” value with HeLa cells [1] is “No membrane translocation was detectable”. In addition, in the assay with HeLa cells [2] (10 μM CCCP), the “YFP-Parkin (wild type or indicated mutant) colocalization with mitochondria, % of cells” value worked out at 34±5.3%. In addition, in the assay on HeLa cells [4], the “cells with no mitochondria” value was determined as 22.0±2.0%.
